Test results as given in article PMC6628828.

Tests used:
[1] = target: glutathione transferase P1-1 C47S mutant (human); test: cross-linking
[2] = target: glutathione transferase P1-1 C47S mutant (human); test: ESI-MS
[3] = target: glutathione transferase P1-1 C101S mutant (human); test: cross-linking
[4] = target: glutathione transferase P1-1 C101S mutant (human); test: ESI-MS

Row | relative abundance of peak E (C47S dimer + 2×[Pt(NH3)]) [1] | relative abundance of peak F (C47S dimer + 2×[PtCl2] + [Pt(NH3)2]) [1] | relative abundance of peak C (C47S dimer) [2] | relative abundance of peak L (C101S dimer + 2×MeOH) [3] | relative abundance of peak C (C101S dimer) [4] | Substance
1 | 54% | 24% | 5% |  |  | glutathione transferase P1-1 C47S mutant (enzyme)
2 |  |  |  | 18% | 5% | glutathione transferase P1-1 C101S mutant (enzyme)
